Source: publication PMC5429572, “Intrabodies against the Polysialyltransferases ST8SiaII and ST8SiaIV inhibit Polysialylation of NCAM in rhabdomyosarcoma tumor cells” (BMC Biotechnology, 2017)

Legend:
[1] = target: T1, Flag-HA-tagged ST8SiaII expressed in HEK293 cells (Mus musculus (assumed), UniProt O35696, N-glycosylated (several glycoforms, fully glycosylated about 60 kDa)); experiment: co-IP; HEK293 cells co-transfected with Flag-HA-tagged polyST and myc-tagged intrabody; lysis in 50 mM Tris-HCl pH 8, 1 mM MgCl2, 1% NP-40; precipitated with anti-myc antibody and Protein G PLUS Agarose; blot with anti-FLAG M5; settings: partners not purified
T1 construct: polysialyltransferase ST8SiaII; The empty vector of the control is pcDNA3-FLAG-HA; The CHO line of the functional rows carries N-terminally Flag-HA-tagged murine ST8SiaII; also called polyST; source: HEK293, transiently transfected, in lysate
T1 sequence (O35696 whole entry): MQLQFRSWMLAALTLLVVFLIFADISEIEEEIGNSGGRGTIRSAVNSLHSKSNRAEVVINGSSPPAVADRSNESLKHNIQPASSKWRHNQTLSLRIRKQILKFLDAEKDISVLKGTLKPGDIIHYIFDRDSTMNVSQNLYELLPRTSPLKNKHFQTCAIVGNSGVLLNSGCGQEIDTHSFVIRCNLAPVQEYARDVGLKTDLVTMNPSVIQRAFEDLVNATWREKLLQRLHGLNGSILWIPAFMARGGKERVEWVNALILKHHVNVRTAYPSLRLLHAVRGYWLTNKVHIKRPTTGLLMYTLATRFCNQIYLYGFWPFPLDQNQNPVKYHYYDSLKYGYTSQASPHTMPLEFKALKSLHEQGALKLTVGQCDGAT

[2] = target: T2, Flag-HA-tagged ST8SiaIV expressed in HEK293 cells (Cricetulus griseus (assumed), UniProt Q64690, N-glycosylated (several glycoforms, fully glycosylated about 55 kDa)); experiment: as above; settings: partners not purified
T2 construct: polysialyltransferase ST8SiaIV; The empty vector of the control is pcDNA3-FLAG-HA; The CHO line of the functional rows carries Flag-HA-tagged hamster ST8SiaIV; also called ST8SiaVI; polyST; source: HEK293, transiently transfected, in lysate
T2 sequence (Q64690 whole entry): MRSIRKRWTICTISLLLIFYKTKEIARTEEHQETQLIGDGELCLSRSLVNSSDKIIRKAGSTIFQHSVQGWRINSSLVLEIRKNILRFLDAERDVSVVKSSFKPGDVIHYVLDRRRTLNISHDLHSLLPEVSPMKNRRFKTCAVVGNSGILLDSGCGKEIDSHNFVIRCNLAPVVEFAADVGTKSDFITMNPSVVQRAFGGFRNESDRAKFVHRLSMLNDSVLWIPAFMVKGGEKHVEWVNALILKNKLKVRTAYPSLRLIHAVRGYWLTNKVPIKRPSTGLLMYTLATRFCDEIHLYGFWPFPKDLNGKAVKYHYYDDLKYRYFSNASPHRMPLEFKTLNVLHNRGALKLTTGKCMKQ

binding result [1] | binding result [2] | Binder
binds | – | αST8SiaII-IB (ER intrabody against ST8SiaII, scFv from mAb 3167) (scFv, V domains shown, synthetic linker, printed as (Gly4 Ser)3; Encoded with an N-terminal ER signal peptide from the vector pCMV/myc/ER; the myc tag is followed by the ER retention signal; also called anti-ST8SiaII-IB; anti-ST8SiaII intrabody; source: HEK293, transiently transfected (pCMV/myc/ER), in lysate; not shown: myc, C-terminal, kept) VH: QVQLQQPGAELVKAGASVKLSCKASGYTFTNYWMHWVKQRPGQGLEWIGEIDPSESYTNYNQKFKGKATLTVDKSASTAYMQLSSLTSEDSAVYYCTRGDYWGQGTTLTVSS VL: DVVVTQTPLSLPVSFGDQVSISCRSSQSLANSYGNTYLSWYLHKPGQSPQLLIYGISNRFSGVPDRFSGSGSGTDFTLKISTIKPEDLGIYYCLQGAHQPWTFGGGTKLEIK
– | binds | αST8SiaIV-IB (ER intrabody against ST8SiaIV, scFv from mAb 3175) (scFv, V domains shown, synthetic linker, printed as (Gly4 Ser)3; Encoded with an N-terminal ER signal peptide from the vector pCMV/myc/ER; the myc tag is followed by the ER retention signal; also called anti-ST8SiaIV-IB; anti-ST8SiaIV intrabody; source: HEK293, transiently transfected (pCMV/myc/ER), in lysate; not shown: myc, C-terminal, kept) VH: EVQLQQSGAELVRSGASVKLSCTTSGFNIKDYYMHWVKQRPEQGLEWIGWIDPENGDTEYAPKFQGKATMTADTSSNTAYLQLSSLTSEDTAVYYCNYRFLAMEYWGQGTSVTVSS VL: NIMMTQSPSSLAVSAGEKVTMSCKSSQSVLYTSNQKNYLAWYQQKPGQSPKLLIYWASTRESGVPDRFTGSGSGTDFTLTISSVQAEDLAVYYCHQYLSSYTFGGGTKLEIK
